Variants at the floor of the assay were thinned out.
Assays:
biotinyl-Phe-oxazolone = experiment: self-aminoacylation, catalytic enhancement (BFO) (fold over background); higher = more active; k-Seq, kA / k0A0; sequences stand for … in GGGAAUGGAUCCACAUCUACGAAUUC…UUCACUGCAGACUUGACGAAGCUG
Method in brief: (§1)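 Catalytic enhancement equals the median kA over the uncatalyzed rate, the latter read from the low-activity peak of a bimodal Gaussian fit. Values of kA came from fitting each sequence's fraction reacted to a pseudo-first-order model, with 1000 bootstraps. Reacted RNA was captured with streptavidin and quantified by triplicate qPCR and Illumina sequencing after 90 minutes at room temperature with 2–1250 μM biotinyl-aminoacyl-oxazolone and 0.43 μM mutagenized RNA pools bearing a 21-nt variable region.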

biotinyl-Ile-oxazolone = experiment: self-aminoacylation, catalytic enhancement (BIO) (fold over background); higher = more active; k-Seq, kA / k0A0; sequences stand for … in GGGAAUGGAUCCACAUCUACGAAUUC…UUCACUGCAGACUUGACGAAGCUG
Method in brief: as §1

biotinyl-Met-oxazolone = experiment: self-aminoacylation, catalytic enhancement (BMO) (fold over background); higher = more active; k-Seq, kA / k0A0; sequences stand for … in GGGAAUGGAUCCACAUCUACGAAUUC…UUCACUGCAGACUUGACGAAGCUG
Method in brief: as §1

biotinyl-Val-oxazolone = experiment: self-aminoacylation, catalytic enhancement (BVO) (fold over background); higher = more active; k-Seq, kA / k0A0; sequences stand for … in GGGAAUGGAUCCACAUCUACGAAUUC…UUCACUGCAGACUUGACGAAGCUG
Method in brief: as §1

biotinyl-Leu-oxazolone = experiment: self-aminoacylation, catalytic enhancement (BLO) (fold over background); higher = more active; k-Seq, kA / k0A0; sequences stand for … in GGGAAUGGAUCCACAUCUACGAAUUC…UUCACUGCAGACUUGACGAAGCUG
Method in brief: as §1

biotinyl-Trp-oxazolone = experiment: self-aminoacylation, catalytic enhancement (BWO) (fold over background); higher = more active; k-Seq, kA / k0A0; sequences stand for … in GGGAAUGGAUCCACAUCUACGAAUUC…UUCACUGCAGACUUGACGAAGCUG
Method in brief: as §1

Sequence	self-aminoacylation (biotinyl-Phe-oxazolone)	self-aminoacylation (biotinyl-Ile-oxazolone)	self-aminoacylation (biotinyl-Met-oxazolone)	self-aminoacylation (biotinyl-Val-oxazolone)	self-aminoacylation (biotinyl-Leu-oxazolone)	self-aminoacylation (biotinyl-Trp-oxazolone)
AAUCACCUAAGUCAUCGGGUG [Fam2.2 aminoacylation ribozyme variant]	44.5	4.89	6.3	4.44	7.68	7.91
AUUACCCUGGUUAUCUAGUGA [Fam2.1 aminoacylation ribozyme variant]	93.5	5.78	14.4	6.4	15.3	17.6
AGUACACUGGUCAUCGAGUGA [Fam2.1 aminoacylation ribozyme variant]	19.1	3.01	4.07	2.81	4.42	5.76
AUUACCCUUGUCAUCGCGUGA [Fam2.1 aminoacylation ribozyme variant]	85.5	5.26	10.7	5.9	13.6	14.3
CCACUUCAAACCAUCGGUCUG [Fam1A.1 aminoacylation ribozyme variant]	1.49	1.31	0.947	1.29	1.24	1.16
CCACACUUAAAGCAAUAGGUC [Fam1B.1 aminoacylation ribozyme variant]	1.24	0.67	0.509	0.913	0.662	0.592
AUUACCCUGGGCAUCCAGUGA [Fam2.1 aminoacylation ribozyme variant]	50.6	3.76	8.06	3.83	8.87	7.23
AUUACCCUUGUCAUCGAAUGA [Fam2.1 aminoacylation ribozyme variant]	0.805	0.946	0.839	1.09	0.89	0.552
AUUCACCUAGACCAUCGGGUG [Fam2.2 aminoacylation ribozyme variant]	22.4	2.48	4.26	3.62	5.27	3.81
CUACUUCAGACAAUCGGUUUG [Fam1A.1 aminoacylation ribozyme variant]	0.819	0.771	0.613	0.86	0.596	0.646
AUUACCCUGGACAUCGAGGGA [Fam2.1 aminoacylation ribozyme variant]	1.26	1.53	2.18	1.19	1.46	2.17
AUUACUCUGCUCAUCGAGUGA [Fam2.1 aminoacylation ribozyme variant]	2.12	1.29	1.58	1.3	1.57	1.92
GUUCACCUAGGUCAUCAGGUG [Fam2.2 aminoacylation ribozyme variant]	2.03	1.23	1.09	1.35	1.32	1.06
AUUACCCUGGUCUUCGGGUGA [Fam2.1 aminoacylation ribozyme variant]	48.9	4.68	8.38	5.66	9.51	9.66
CGGUUUGCUAAUAGUCGCAAG [Fam3.1 aminoacylation ribozyme variant]	2.27	1.18	1.17	1.18	1.17	1.68
AUGUUUUCUAAUAGUCGCAAG [Fam3.1 aminoacylation ribozyme variant]	2.58	1.62	1.62	1.2	1.52	2.2
CUAAUUCAAACAAUGGGUCUG [Fam1A.1 aminoacylation ribozyme variant]	0.481	0.742	0.777	0.739	0.643	0.468
AUUCACUAAGGUCAUCGGGUG [Fam2.2 aminoacylation ribozyme variant]	37.7	3.57	5.33	3.66	6.72	5.99
AUUCACCUAGGUCAACGGAUG [Fam2.2 aminoacylation ribozyme variant]	0.356	0.758	0.667	0.726	0.549	0.259
CCAUACUACAAGCAAUCGGUC [Fam1B.1 aminoacylation ribozyme variant]	0.942	0.884	0.696	0.779	0.772	0.655
AAGUUUGCUAAUCGUCGCUAG [Fam3.1 aminoacylation ribozyme variant]	1.07	0.976	0.844	0.834	0.87	0.871
AUAACCCAGGUCAUCGAGUGA [Fam2.1 aminoacylation ribozyme variant]	19.3	2.67	5.5	2.95	4.72	6.13
AUUACCCUGAUGAUCGAGUGA [Fam2.1 aminoacylation ribozyme variant]	79.7	5.5	12.7	5.25	13	14.4
CUACUUCAAACAUUCGAUCUG [Fam1A.1 aminoacylation ribozyme variant]	0.62	0.645	0.593	0.731	0.561	0.44
AUUACCCUGUUCAUCGAGUUA [Fam2.1 aminoacylation ribozyme variant]	0.909	1.19	1.13	1.12	1.12	0.616
CCACACCUCAAGCAAUUGGUC [Fam1B.1 aminoacylation ribozyme variant]	1.05	0.937	0.699	0.754	0.873	0.738

Sequence	self-aminoacylation (biotinyl-Phe-oxazolone)	self-aminoacylation (biotinyl-Ile-oxazolone)	self-aminoacylation (biotinyl-Met-oxazolone)	self-aminoacylation (biotinyl-Val-oxazolone)	self-aminoacylation (biotinyl-Leu-oxazolone)	self-aminoacylation (biotinyl-Trp-oxazolone)
AUUACCAUCGUCAUCGAGUGA [Fam2.1 aminoacylation ribozyme variant]	5.68	2.21	3.19	2.32	3.6	3.53
CUACUUCAAACAAGCUGUCUG [Fam1A.1 aminoacylation ribozyme variant]	0.642	0.733	0.7	0.734	0.795	0.356
CUACUUCAGACAAGCGGUCUG [Fam1A.1 aminoacylation ribozyme variant]	0.263	0.839	1.26	0.96	0.966	0.406
CUACUUCAAACAAGCGUUCUG [Fam1A.1 aminoacylation ribozyme variant]	0.391	0.481	0.499	0.499	0.517	0.503
CCACACUUCAAACAAACGGUC [Fam1B.1 aminoacylation ribozyme variant]	0.66	0.692	0.626	0.697	0.598	0.471
CCCCACUUCAAGCAAUCGUUC [Fam1B.1 aminoacylation ribozyme variant]	1.77	0.898	0.697	0.849	0.697	1.12
CUACCUCAAAAAAUCGGUCUG [Fam1A.1 aminoacylation ribozyme variant]	1.28	1.02	1.41	1.01	1.49	1.3
CUAGUCCAAACAAUCGGUCUG [Fam1A.1 aminoacylation ribozyme variant]	1.03	0.963	0.736	0.767	0.755	1.01
AAGAUUGCUAAUAGUCGCAAU [Fam3.1 aminoacylation ribozyme variant]	2.37	1.54	1.85	1.41	1.37	1.14
AUUACCCUGGUCGUCGAGUGC [Fam2.1 aminoacylation ribozyme variant]	1.76	0.739	0.9	0.907	0.808	0.43
UUUACCCUGCUCAUCGAGUGA [Fam2.1 aminoacylation ribozyme variant]	8.11	1.28	2.03	1.54	2.15	3.13
AUACUUCAAACAAUCGGUCAG [Fam1A.1 aminoacylation ribozyme variant]	3.2	0.82	0.672	0.891	0.728	1.88
GUUACCCUGGCCAUCGAGUGA [Fam2.1 aminoacylation ribozyme variant]	43.7	4.06	6.73	5	8.07	9.03
AUUACCUUGGUCAUCGUGUGA [Fam2.1 aminoacylation ribozyme variant]	16.2	1.53	2.55	1.57	2.71	3.57
AAGUUUGCUAAUAGUGGCAAG [Fam3.1 aminoacylation ribozyme variant]	0.894	0.737	0.734	0.739	0.692	0.773
AUUACCCUAGUCAUCUAGUGA [Fam2.1 aminoacylation ribozyme variant]	27.6	3.37	7.37	3.59	6.97	10.6
AUUCCCCUAGAUCAUCGGGUG [Fam2.2 aminoacylation ribozyme variant]	75.1	7.3	9.42	6.64	11.9	9.85
AUACACCUAGGUGAUCGGGUG [Fam2.2 aminoacylation ribozyme variant]	16.4	3.87	3.56	2.6	3.88	4.59
CCACACAUCAAGCAAUCAGUC [Fam1B.1 aminoacylation ribozyme variant]	1.22	0.82	0.664	0.708	0.708	0.575
CCACACUUCUAGCAAUCUGUC [Fam1B.1 aminoacylation ribozyme variant]	0.693	0.424	0.378	0.502	0.354	0.292
AUCACCCUGGCCAUCGAGUGA [Fam2.1 aminoacylation ribozyme variant]	32	3.91	6.12	3.96	6.04	7.58
AUUACCGUGGUCAUAGAGUGA [Fam2.1 aminoacylation ribozyme variant]	35.7	3.67	7.8	3.97	6.95	7.99
AUUACCCGGGACAUCGAGUGA [Fam2.1 aminoacylation ribozyme variant]	80.3	4.52	10.5	5.01	11.2	12.3
AUUAACCUAGGUCAUCGGUUG [Fam2.2 aminoacylation ribozyme variant]	3.47	1.02	1.07	1.09	1.19	1.05
AUUACCCCGGUCAUCUAGUGA [Fam2.1 aminoacylation ribozyme variant]	47.1	4.31	7.8	3.96	8.24	8.95

Source: the supplement of paper PMC9233669
